Assay results taken from PMC7515697 (2020).

Tests used:
[1] = target: X. albilineans Cas8f(K248E)–Cas5f heterodimer (Xanthomonas albilineans); assay: ITC; 250 μM AcrIF7 in the syringe titrated into 35 μM Cas8f–Cas5f in the cell; 20 mM Tris–HCl pH 7.5, 150 mM NaCl, 1 mM TCEP, 25°C; one-site binding model
[2] = target: X. albilineans Cas8f–Cas5f heterodimer (Xanthomonas albilineans); assay: as above
[3] = target: X. albilineans Cas8f(K29E)–Cas5f heterodimer (Xanthomonas albilineans); assay: as above
[4] = target: X. albilineans Cas8f–Cas5f heterodimer (Xanthomonas albilineans); assay: ITC; as the standard ITC but with 500 mM NaCl instead of 150 mM
[5] = target: T1, X. albilineans Cas8f–Cas5f heterodimer (Xanthomonas albilineans); assay: ITC; 500 mM NaCl
T1 chain 1: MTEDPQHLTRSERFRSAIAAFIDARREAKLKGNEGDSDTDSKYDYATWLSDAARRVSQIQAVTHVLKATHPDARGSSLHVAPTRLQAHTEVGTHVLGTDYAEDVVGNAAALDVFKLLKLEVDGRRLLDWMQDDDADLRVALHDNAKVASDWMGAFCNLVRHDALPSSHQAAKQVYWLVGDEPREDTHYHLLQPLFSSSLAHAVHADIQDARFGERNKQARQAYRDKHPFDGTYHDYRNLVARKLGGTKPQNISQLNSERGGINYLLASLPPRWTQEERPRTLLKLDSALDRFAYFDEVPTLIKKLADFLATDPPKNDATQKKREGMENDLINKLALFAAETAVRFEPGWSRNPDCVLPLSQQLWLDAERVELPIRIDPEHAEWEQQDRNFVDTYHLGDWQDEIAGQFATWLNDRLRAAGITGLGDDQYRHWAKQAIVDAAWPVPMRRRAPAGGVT
T1 chain 2: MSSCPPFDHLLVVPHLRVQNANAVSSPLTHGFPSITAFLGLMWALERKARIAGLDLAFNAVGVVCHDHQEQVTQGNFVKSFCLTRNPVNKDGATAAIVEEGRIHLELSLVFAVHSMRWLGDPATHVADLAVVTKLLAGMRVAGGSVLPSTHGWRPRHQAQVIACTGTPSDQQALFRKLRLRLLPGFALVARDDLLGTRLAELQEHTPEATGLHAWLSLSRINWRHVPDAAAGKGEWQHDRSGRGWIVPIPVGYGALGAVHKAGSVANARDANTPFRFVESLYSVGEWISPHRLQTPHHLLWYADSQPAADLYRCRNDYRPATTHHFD

AcrIF7 (a.a. 1–67) (natural protein)
Kd [1]: 1870 nM | dH [1]: -16 kcal/mol | stoichiometry N [1]: 0.78 | Kd [2]: 46 nM | dH [2]: -17.1 kcal/mol | stoichiometry N [2]: 0.78 | Kd [3]: 327 nM | dH [3]: -14.5 kcal/mol | stoichiometry N [3]: 0.83 | fold reduction of the strength of the interaction at 500 mM NaCl against 150 mM NaCl [4]: 2.7 fold

AcrIF7 D13K (natural protein)
Kd [2]: 2450 nM | dH [2]: -14.2 kcal/mol | stoichiometry N [2]: 0.72

AcrIF7 D28K/D29K (natural protein)
Kd [2]: 179 nM | dH [2]: -12.9 kcal/mol | stoichiometry N [2]: 0.75

AcrIF7 D57K (natural protein)
Kd [2]: 333 nM | dH [2]: -12.7 kcal/mol | stoichiometry N [2]: 0.77

AcrIF7 E18K (natural protein)
Kd [2]: 49 nM | dH [2]: -19.6 kcal/mol | stoichiometry N [2]: 0.88

AcrIF7 E22K (natural protein)
Kd [2]: 50 nM | dH [2]: -15.6 kcal/mol | stoichiometry N [2]: 0.75

AcrIF7 E33K/E34K (natural protein)
Kd [2]: 4850 nM | dH [2]: -9.5 kcal/mol | stoichiometry N [2]: 0.9

AcrIF7 E46K/E47K (natural protein)
Kd [2]: 46 nM | dH [2]: -17 kcal/mol | stoichiometry N [2]: 0.8

B1: AcrIF7 (a.a. 1–67) (natural protein)
chain: MTTFTSIVTTNPDFGGFEFYVEAGQQFDDSAYEEAYGVSVPSAVVEEMNAKAAQLKDGEWLNVSHEA
Kd [5]: 124 nM
